# From the supplement of paper PMC10567573
# ± gives the standard deviation.
# Experiment: protein stability index of a GFP-peptide fusion (GPS, HEK-293T) (PSI 1-6); higher = more stable
# [1] = treatment: DMSO, c terminus: a fixed tail appended
# [2] = treatment: MLN4924 1 uM, 8 h, c terminus: a fixed tail appended
# [3] = treatment: DMSO, c terminus: native
# [4] = treatment: MLN4924 1 uM, 8 h, c terminus: native
# 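Also: 24-mer peptide tiles fused after GFP, lentivirally expressed, FACS-sorted into six equal bins by GFP/DsRed ratio, decoded by Illumina sequencing, PSI is the read-weighted mean bin number.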
Sequence,protein stability index [1],protein stability index [2],protein stability index [3],protein stability index [4]
SHLSNGLDPVAETAIRQLTEPSGR [C2CD2L],4.34 ± 0.31,4.58 ± 0.3,,
MDEAVGDLKQALPCVAESPTVHVE [TRIP13],5.18 ± 0.13,5.01 ± 0.19,,
TKDPDVAFHGLSLGLSLTNGLALG [PSD2],2.46 ± 0.21,2.43 ± 0.25,,
GSEMGLSSHLQSSKAGPTRIFTSN [KLHL13],3.78 ± 0.17,3.77 ± 0.23,,
QSRGVPAVSESYSAPGACEEPTER [FBXO34],5.49 ± 0.18,5.49 ± 0.18,,
KSKGYGFVSFFNKWDAENAIQQMG [TIA1],2.11 ± 0.76,1.59 ± 0.3,,
VLEAKMTMLTVIEQPVPPTPATPE [EMID1],3.72 ± 0.38,3.89 ± 0.24,,
PVKSYDYLLKFLLVGDSDVGKGEI [RAB40C],2.06 ± 0.19,2 ± 0.24,,
ELVPKQPQKRKPQEQLLECNKLCG [SLC2A12],3.44 ± 0.45,4.18 ± 0.18,,
VILSEIKEAVAALPPDVTTQSVMG [TCF25],2.77 ± 0.43,2.65 ± 0.2,,
ASHQQQVLPPRQPSALVPSVTEYR [MYBL2],4.38 ± 0.28,4.37 ± 0.15,,
DQTKSIVEKIQAKLPGIAKKKAE [RTN3],,,5.46 ± 0.17,5.56 ± 0.22
YGGSGDGLIPTGSGRHPSHSTTPS [ARFIP2],4.26 ± 0.069,4.51 ± 0.29,,
NDYIVPRHCPELAEMSRVSIRILD [HNF4A],3.08 ± 0.19,3.29 ± 0.24,,
CQSVLEDFNLCLFYLPSSPNLSLA [SMG5],2.5 ± 0.65,2.72 ± 0.63,,
FSPAKPKPSKELKPLLGSAVLGLL [MYORG],2.15 ± 0.53,2.21 ± 0.17,,
DMENKENGSVGVKNSMENGRPPDP [SAMD13],5.11 ± 0.27,5.15 ± 0.32,,
QRLLNTPRRKKLKSTSKYIYQTLF [GMCL1],2.08 ± 0.73,1.75 ± 0.46,,
KKRMRYFDPLRNEYFFDRNRPSFD [KCNA1],2.47 ± 0.44,2.83 ± 0.19,,
PCIPPGFRNLVADRVLNYTSWSQH [SPAG8],2.14 ± 0.15,2.37 ± 0.27,,
SRAALVCRKWNQMMYSAELWRYRT [FBXO39],2.45 ± 0.56,2.15 ± 0.25,,
ANMEDLTEVITASEFHPHHCNLFV [PPP2R2C],2.49 ± 0.3,2.41 ± 0.24,,
YAVGGSDGTSPLNTVERYNPQENR [KLHL20],4.53 ± 0.33,4.79 ± 0.28,,

Sequence,protein stability index [1],protein stability index [2],protein stability index [3],protein stability index [4]
GAAGRSQEPEVPCAAVLPGKPGDR [RSPH3],5.31 ± 0.29,5.31 ± 0.2,,
VPVKKQKTRTVFSSTQLCVLNDRF [NANOGP8],2.57 ± 0.23,2.77 ± 0.32,,
AKEDGKADTKKRHTPRGHAESTSN [SMOC2],5.53 ± 0.25,5.45 ± 0.35,,
AHRERNEFPEDPEFEAVVRQAELA [PI4K2A],5.32 ± 0.12,5.36 ± 0.43,,
NSMAPHPARDYVVLRTWRTNLPKG [DLC1],2.48 ± 0.59,2.64 ± 0.21,,
DRFQVPTTEVNAWLVHRDPEGSVS [NFE2L1],3.842 ± 0.034,4.5 ± 0.063,,
LVEDMQRELGRLRQQVTNHGRGTE [ZNF263],3.35 ± 0.33,3.55 ± 0.22,,
RLQRKLVEPKHCFTSPDYQQQCHE [SDE2],3.67 ± 0.2,3.69 ± 0.2,,
HRRDGKWQIVHFHRSGAPSVLPH [CAMK2A],,,3.2 ± 0.21,3.34 ± 0.24
SLFAFKSFRENWQRAWVRALNEQA [C2CD2L],2.15 ± 0.08,2.1 ± 0.23,,
ERLVAQFPSSGRFWKLYIEAEVTI [CSTF3],2.93 ± 0.61,2.71 ± 0.38,,
IGLTKAGMEGDWSWVDDTPFNKVQ [CD207],2.97 ± 0.37,3.04 ± 0.46,,
EKLCIYTDNSIKPQELLEWELVVL [CCND2],2.57 ± 0.58,2.62 ± 0.6,,
RRFLLCLYLVGFLDLFGVSMVVPL [MFSD9],2.91 ± 0.57,3.4 ± 0.17,,
LTPTYLNQEDAIHFHRTLKEACDQ [CPOX],4.11 ± 0.25,4.35 ± 0.29,,
LMCGGIAFWSLVTLGSSFIPGEHF [SPNS1],3.21 ± 0.64,3.18 ± 0.21,,
LPHDFIDSLEKTDDDKYKITLKYP [NLN],3.7 ± 0.3,3.13 ± 0.089,,
VKDLIKKLLVVDRTRRLGNMKNGA [PRKX],2.62 ± 0.57,2.33 ± 0.56,,
GNLGSLEKSVTKDAEGLAARDVQK [INTS4],5.46 ± 0.089,5.42 ± 0.12,,
RIIDKPRVIEVLPRGATAAVLAPD [SEPHS2],3.88 ± 0.23,4.08 ± 0.068,,
FEAYAKICDPGLTSFEPEALGNLV [CAMK2B],2.71 ± 0.37,2.76 ± 0.32,,
NQLSQAELDELASKAPVLTYGQPK [EFHC1],4.78 ± 0.11,4.79 ± 0.072,,
KNHEEEMKEFSNQVVGQVNVEMDA [KRT13],5.54 ± 0.079,5.44 ± 0.31,,

Sequence,protein stability index [1],protein stability index [2],protein stability index [3],protein stability index [4]
MIRKGGDQTSLLVVDKETDNMYRL [PDZK1],,3.17 ± 0.25,,
WQLFGPFGAVTNVKVIRDFTTNKC [ELAVL3],2.36 ± 0.37,2.2 ± 0.26,,
RLQQLRRLRGLLRVLRGRPGAGSR [FBXO33],2.36 ± 0.21,2.66 ± 0.62,,
RQRFRHLRYQETPGPREALSQLRV [ZNF232],3.13 ± 0.27,3.39 ± 0.28,,
LHPPVDDPQSGELPSERWNPTQNV [CDC34],5.02 ± 0.36,5.04 ± 0.32,,
GYLLSFHTPGGQNQEILLPGGITS [TNXB],2 ± 0.36,2 ± 0.41,,
GEVEEEADSCFGDDEDDSGTEES [CDC34],,,5.25 ± 0.37,5.29 ± 0.15
VQKSIYSEFLKRFVEATRKWKVGI [ALDH8A1],2.75 ± 0.91,2.83 ± 0.54,,
SALTLACYKGHLEMVRFLLEAGAD [ANKRD17],3.08 ± 0.31,2.69 ± 0.24,,
KAVKDLVVLLFETALLSSGFSLED [HSP90AB1],2.92 ± 0.17,2.88 ± 0.16,,
FLQQSLERVYSLQHLDPQGAQELL [INTS4],1.91 ± 0.42,2.76 ± 0.54,,
TEMAASSQGNFEGNFESLDLAEFA [FUNDC2],5.21 ± 0.42,5.1 ± 0.44,,
AGSVVAAVQGLNLRSPNNFLSYYR [CCND1],2.58 ± 0.2,2.61 ± 0.32,,
TPTPFFHTFAGDDCQAGLNFADED [WAS],4.86 ± 0.25,5 ± 0.07,,
REVSSYPSTVGAEAQEEFLRVLGS [DFFB],4.33 ± 0.22,4.23 ± 0.16,,
MQPFNYVTLQCLAARALDKNKIPY [FEM1A],3.25 ± 0.38,2.97 ± 0.31,,
MTKAGSKGGNLRDKLDGNELDLSL [LRRC59],4.63 ± 0.15,4.63 ± 0.081,,
PSEPSAPLPAGVPPLEDFEVLDGV [FKBP8],5.49 ± 0.18,5.53 ± 0.11,,
RNTKRDVTLEASRENSKPRAILKP [PPP2R2B],4.44 ± 0.47,4.79 ± 0.056,,
AFHGLSLGLSLTNGLALGPDLNIL [PSD2],2.57 ± 0.56,2.54 ± 0.5,,
QNMMNHCNLWDSHHPEVPQRILRI [HDAC6],2.2 ± 0.24,2.15 ± 0.083,,
ERMAEEGGGGQGDGGSSLASGSTQ [FBXO28],5.53 ± 0.35,5.35 ± 0.33,,
DSIKTEVSGCPEDLTVGRAPTADD [NOL4L],5.63 ± 0.34,5.68 ± 0.15,,

Sequence,protein stability index [1],protein stability index [2],protein stability index [3],protein stability index [4]
MWVRFRAFEAARDLDACALVRGHR [ZSWIM9],2.17 ± 0.25,2.06 ± 0.22,,
QAGAARLEEELRQLKEEMARHLRE [PRPH],4.15 ± 0.37,4.63 ± 0.3,,
EDMLLPLAWRIVNDTYRTDLCLLY [CCNC],2.76 ± 0.57,2.59 ± 0.38,,
RFALIPAPELVERVQSVDFMRTDP [KLHL14],3.26 ± 0.17,3.26 ± 0.18,,
RLALEKVPKVGQRFNRIGLPPKVG [PI4K2A],3.23 ± 0.3,3.21 ± 0.097,,
PKKKHLDYLIQATNETNVNIPQMA [SNAP91],3.67 ± 0.13,3.43 ± 0.33,,
HYFPVMKKCCIPETRRRMEMAFNT [NLN],2.35 ± 0.43,1.84 ± 0.27,,
CYVSRRLSQLSSHDPLWRRHCKKY [FBXO3],2.32 ± 0.12,2.4 ± 0.23,,
WDIGRGKLYHQSKGPGAPQYPAGT [SPSB2],3.72 ± 0.095,3.53 ± 0.07,,
AKRLWKVCVEHHTFFRLLLPEAPP [EPB41L3],2.48 ± 0.88,2.42 ± 0.76,,
NPLICPVCTKYNLRITSGVVVCQC [RPAIN],3.91 ± 0.32,4.16 ± 0.25,,
GTLLFYIGGHLVRDNDHPDHSSRE [FUT8],2.3 ± 0.59,2.55 ± 0.58,,
GLVPSEKPPMMPQAQPAIPRPNRL [C2CD2L],4.65 ± 0.21,4.47 ± 0.068,,
QSYKDLCERHEKGVLHKHQRALHK [SNX8],3.95 ± 0.2,3.92 ± 0.37,,
DKELLCCSCQADPRHQGHRVQPVK [TRIM35],3.56 ± 0.32,4.06 ± 0.3,,
FSPDGPSRFRKAYKPEQPLVRLRG [LOXL2],2.5 ± 0.58,3.39 ± 0.68,,
VEKETQEKMTILQTYFRQNRDEVL [ATP6V1G1],3.61 ± 0.34,3.78 ± 0.26,,
HPGFKDNVYRKRRKYFADLAMNYK [TPH1],2.61 ± 0.23,3.01 ± 0.48,,
NNQDFIPFTKKRVGVDRAFPLKPM [ZC2HC1C],2.85 ± 0.39,3.26 ± 0.45,,
GHQPGTGPGDGPPEIAQNFSAPDP [SMTNL2],5.23 ± 0.098,5.46 ± 0.15,,
